Measurements taken from US20140179896A1 (published 2014).

B1: 3C7 PR3 (designed binder)
chain: EVVAATPTSLLISWRHPHFPTRYYRITYGETGGNSPVQEFTVPLQPPTATISGLKPGVDYTITGYAVTRGLNDGELLTPISINYRT
notes: Del 1-8
B2: 3′B1 PR4 (designed binder)
chain: EVVAATPTSLLISWRHPHFPTRYYRITYGETGGNSPVQEFTVPLQPPTATISGLKPGVDYTITGYAVTEARNGRELLTPISINYRT
notes: Del 1-8
B3: 3C9 PR3 (designed binder)
chain: EVVAATPTSLLISWRHPHFPTRYYRITYGETGGNSPVQEFTVPLQPPTATISGLKPGVDYTITGYAVTLVRNDHELLTPISINYRT
notes: Del 1-8
B4: 3′C8 PR4 (designed binder)
chain: EVVAATPTSLLISWRHPHFPTRYYRITYGETGGNSPVQEFTVPLQPPTATISGLKPGVDYTITGYAVTEGLNDHELMIPISINYRT
notes: Del 1-8
B5: 3′E11 PR4 (designed binder)
chain: EVVAATPTSLLISWRHPHFPTRYYRITYGETGGNSPVQEFTVPLQPPTATISGLKPGVDYTITGYAVTVGPHDRELLTPISINYRT
notes: Del 1-8
B6: 3′B10 PR4 (designed binder)
chain: EVVAATPTSLLISWRHPHFPTRYYRITYGETGGNSPVQEFTVPLQPPTATISGLKPGVDYTITGYAVTLAQTGRELLTPISINYRT
notes: Del 1-8
B7: 3′A9 PR4 (designed binder)
chain: EVVAATPTSLLISWRHPHFPTRYYRITYGETGGNSPVQEFTVPLQPPTATISGLKPGVDYTITGYAVTLAHNDRELLTPISINYRT
notes: Del 1-8
B8: 3′E3 PR4 (designed binder)
chain: EVVAATPTSLLISWRHPHFPTRYYRITYGETGGNSPVQEFTVPLQPPTATISGLKPGVDYTITGYAVTMAQYGRELLTPISINYRT
notes: Del 1-8
B9: 3′A7 PR4 (designed binder)
chain: EVVAATPTSLLISWRHPHFPTRYYRITYGETGGNSPVQEFTVPLQPPTATISGLKPGVDYTITGYAVTLSDSGHALFTPISINYRT
notes: Del 1-8
B10: 3′C3 PR4 (designed binder)
chain: EVVAATPTSLLISWRHPHFPTRYYRITYGETGGNSPVQEFTVPLQPPTATISGLKPGVDYTITGYAVTMAQNGHALFTPISINYRT
notes: Del 1-8
B11: 3′B8 PR4 (designed binder)
chain: EVVAATPTSLLISWRHPHFPTRYYRITYGETGGNSPVQEFTVPLQPPTATISGLKPGVDYTITGYAVTLGYHDHALFTPISINYRT
notes: Del 1-8
B12: 3′E1 PR4 (designed binder)
chain: EVVAATPTSLLISWRHPHFPTRYYRITYGETGGNSPVQEFTVPLQPPTATISGLKPGVDYTITGYAVTVAPNGHELFTPISINYRT
notes: Del 1-8
B13: 3′D8 PR4 (designed binder)
chain: EVVAATPTSLLISWRHPHFPTRYYRITYGETGGNSPVQEFTVPLQPPTATISGLKPGVDYTITGYAVTAGPNDHQLFTPISINYRT
notes: Del 1-8
B14: 3G2 PR3 (designed binder)
chain: EVVAATPTSLLISWRHPHFPTRYYRITYGETGGNSPVQEFTVPLQPPTATISGLKPGVDYTITGYAVTFGPSDHVLLTPISINYRT
notes: Del 1-8
B15: 3′F9 PR4 (designed binder)
chain: EVVAATPTSLLISWRHPHFPTRYYRITYGETGGNSPVQEFTVPLQPPTATISGLKPGVDYTITGYAVTLGPNDRELMTPISINYRT
notes: Del 1-8
B16: 3′D3 PR4 (designed binder)
chain: EVVAATPTSLLISWRHPHFPTRYYRITYGETGGNSPVQEFTVPLQPPTATISGLKPGVDYTITGYAVTPGPGDRELITPISINYRT
notes: Del 1-8
B17: 3′E9 PR4 (designed binder)
chain: EVVAATPTSLLISWRHPHFPTRYYRITYGETGGNSPVQEFTVPLQPPTATISGLKPGVDYTITGYAVTVEQDGHVLYIPISINYRT
notes: Del 1-8
B18: 3′C5 PR4 (designed binder)
chain: EVVAATPTSLLISWRHPHFPTRYYRITYGETGGNSPVQEFTVPLQPPTATISGLKPGVDYTITGYAVTDAMYGRELMTPISINYRT
notes: Del 1-8
B19: 3′C6 PR4 (designed binder)
chain: EVVAATPTSLLISWRHPHFPTRYYRITYGETGGNSPVQEFTVPLQPPTATISGLKPGVDYTITGYAVTMGPNDRELLTPISINYRT
notes: Del 1-8
B20: 3′F6 PR4 (designed binder)
chain: EVVAATPTSLLISWRHPHFPTRYYRITYGETGGNSPVQEFTVPLQPPTATISGLKPGVDYTITGYAVTIEQSGLQLMTPISINYRT
notes: Del 1-8
B21: 3′B12 PR4 (designed binder)
chain: EVVAATPTSLLISWRHPHFPTRYYRITYGETGGNSPVQEFTVPLQPPTATISGLKPGVDYTITGYAVTVAHENRELLTPISINYRT
notes: Del 1-8
B22: 3D12 PR3 (designed binder)
chain: EVVAATPTSLLISWRHPHFPTRYYRITYGETGGNSPVQEFTVPLQPPTATISGLKPGVDYTITGYAVTLGQNDRQLLVPISINYRT
notes: Del 1-8
B23: 3′F1 PR4 (designed binder)
chain: EVVAATPTSLLISWRHPHFPTRYYRITYGETGGNSPVQEFTVPLQPPTATISGLKPGVDYTITGYAVTVAQDGHFLYTPISINYRT
notes: Del 1-8
B24: 3′F2 PR4 (designed binder)
chain: EVVAATPTSLLISWRHPHFPTRYYRITYGETGGNSPVQEFTVPLQPPTATISGLKPGVDYTITGYAVTLGKNDHELLTPISINYRT
notes: Del 1-8
B25: 3′D2 PR4 (designed binder)
chain: EVVAATPTSLLISWRHPHFPTRYYRITYGETGGNSPVQEFTVPLQPPTATISGLKPGVDYTITGYAVTVESNGHALFVPISINYRT
notes: Del 1-8
B26: 3′A8 PR4 (designed binder)
chain: EVVAATPTSLLISWRHPHFPTRYYRITYGETGGNSPVQEFTVPLQPPTATISGLKPGVDYTITGYAVTVAWDDHELLTPISINYRT
notes: Del 1-8
B27: 3′E5 PR4 (designed binder)
chain: EVVAATPTSLLISWRHPHFPTRYYRITYGETGGNSPVQEFTVPLQPPTATISGLKPGVDYTITGYAVTVAWDGRELFTPISINYRT
notes: Del 1-8
B28: 3′C12 PR4 (designed binder)
chain: EVVAATPTSLLISWRHPHFPTRYYRITYGETGGNSPVQEFTVPLQPPTATISGLKPGVDYTITGYAVTIGPNNHELLTPISINYRT
notes: Del 1-8
B29: 3′D9 PR4 (designed binder)
chain: EVVAATPTSLLISWRHPHFPTRYYRITYGETGGNSPVQEFTVPLQPPTATISGLKPGVDYTITGYAVTGYYNDRELLTPISINYRT
notes: Del 1-8
B30: 3′A6 PR4 (designed binder)
chain: EVVAATPTSLLISWRHPHFPTRYYRITYGETGGNSPVQEFTVPLQPPTATISGLKPGVDYTITGYAVTLAQNGHELLTPISINYRT
notes: Del 1-8
B31: 3F8 PR3 (designed binder)
chain: EVVAATPTSLLISWRHPHFPTRYYRITYGETGGNSPVQEFTVPLQPPTATISGLKPGVDYTITGYAVTVAQNGHELKTPISINYRT
notes: Del 1-8
B32: 3′B11 PR4 (designed binder)
chain: EVVAATPTSLLISWRHPHFPTRYYRITYGETGGNSPVQEFTVPLQPPTATISGLKPGVDYTITGYAVTETWNDHEIRTPISINYRT
notes: Del 1-8
B33: 3′B4 PR4 (designed binder)
chain: EVVAATPTSLLISWRHPHFPTRYYRITYGETGGNSPVQEFTVPLQPPTATISGLKPGVDYTITGYAVTVAWNGHELMTPISINYRT
notes: Del 1-8
B34: 3F10 PR3 (designed binder)
chain: EVVAATPTSLLISWRHPHFPTRYYRITYGETGGNSPVQEFTVPLQPPTATISGLKPGVDYTITGYAVTLAQDDHELLTPISINYRT
notes: Del 1-8
B35: 3′B2 PR4 (designed binder)
chain: EVVAATPTSLLISWRHPHFPTRYYRITYGETGGNSPVQEFTVPLQPPTATISGLKPGVDYTITGYAVTVGRNDRELLTPISINYRT
notes: Del 1-8
B36: 3′F3 PR4 (designed binder)
chain: EVVAATPTSLLISWRHPHFPTRYYRITYGETGGNSPVQEFTVPLQPPTATISGLKPGVDYTITGYAVTLGHNDRELLTPISINYRT
notes: Del 1-8

Biological target: T1, human vascular endothelial growth factor receptor-2 Fc chimera (KDR-Fc) (human, UniProt P35968 20-764)
T1 construct: range 1-764; also called human VEGFR-2; VEGF-R2-Fc; not shown: human IgG1 Fc
Assay: radioactive equilibrium binding, 1 nM KDR-Fc
Description: To prepare ³⁵S-labeled binding proteins for analysis, mRNA was prepared as described above for RNA-protein fusion production but the linker ligation step was omitted. The mRNA was expressed using rabbit reticulocyte lysate translation kit (Ambion) in the presence of ³⁵S-labeled Met at 30° C. for 1 hour. Expressed protein was purified on M2-agarose Flag beads (Sigma) as described above. This procedure produced the encoded protein without the nucleic acid tail. In a direct binding assay, VEGF-R2-Fc fusions in concentrations ranging from 0 to 200 nM were added to a constant concentration of the purified protein (0.2 or 0.5 nM) and incubated at 30° C. for 1 hour in buffer B. The receptor-binder complexes were captured using Protein A magnetic beads for another 10 minutes at room temperature using a Kingfisher™ The beads were washed with six reaction volumes of buffer B. The protein was eluted from the beads with 100 μL of 0.1 M KOH. […] of the reaction mixture and elution were dried onto a LumaPlate-96 (Packard) and the amount of ³⁵S on the plate was measured using a TopCount NXT instrument (Packard). The amount of fibronectin-based scaffold protein bound to the target was estimated as a percent of radioactivity eluted from Protein A magnetic beads compare to radioactivity in the reaction mixture. Nonspecific binding of fibronectin-based scaffold proteins to the beads was determined by measuring binding in the absence of KDR-Fc and represented less than 1-2% of the input. Specific binding was obtained through subtraction of nonspecific binding from total binding. Data was analyzed using the GraphPad Prizm software (GraphPad Software, Inc, San Diego, Calif.), fitted using a one site, non-linear binding equation.

T1 sequence (P35968 20-764 limits assumed, change not shown, form in doubt): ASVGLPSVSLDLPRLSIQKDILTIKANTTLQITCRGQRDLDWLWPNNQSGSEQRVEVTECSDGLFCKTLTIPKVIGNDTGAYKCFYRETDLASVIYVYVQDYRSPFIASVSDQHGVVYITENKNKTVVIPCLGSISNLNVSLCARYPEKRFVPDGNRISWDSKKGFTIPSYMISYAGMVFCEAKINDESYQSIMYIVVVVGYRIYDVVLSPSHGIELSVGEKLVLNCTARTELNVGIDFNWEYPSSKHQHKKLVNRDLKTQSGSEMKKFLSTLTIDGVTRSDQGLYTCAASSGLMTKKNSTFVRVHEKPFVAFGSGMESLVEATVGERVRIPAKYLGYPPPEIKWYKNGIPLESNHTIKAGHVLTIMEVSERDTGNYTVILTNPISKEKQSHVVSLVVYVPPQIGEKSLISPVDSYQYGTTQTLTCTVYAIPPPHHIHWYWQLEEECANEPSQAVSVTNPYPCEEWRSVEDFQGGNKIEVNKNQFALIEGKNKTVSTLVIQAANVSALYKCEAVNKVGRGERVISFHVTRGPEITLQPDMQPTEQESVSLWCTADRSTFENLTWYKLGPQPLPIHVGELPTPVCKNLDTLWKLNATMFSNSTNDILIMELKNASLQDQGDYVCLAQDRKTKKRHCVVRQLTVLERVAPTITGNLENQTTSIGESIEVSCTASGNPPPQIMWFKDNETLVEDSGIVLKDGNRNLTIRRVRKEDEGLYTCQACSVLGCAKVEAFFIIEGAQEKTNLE

Row | Binder | Binding to 1 nM KDR, % [%]
1 | B1 | 20
2 | B2 | 25
3 | B3 | 16
4 | B4 | 19
5 | B5 | 17
6 | B6 | 21
7 | B7 | 25
8 | B8 | 41
9 | B9 | 34
10 | B10 | 32
11 | B11 | 14
12 | B12 | 32
13 | B13 | 27
14 | B14 | 20
15 | B15 | 18
16 | B16 | 42
17 | B17 | 44
18 | B18 | 27

Row | Binder | Binding to 1 nM KDR, % [%]
19 | B19 | 37
20 | B20 | 24
21 | B21 | 28
22 | B22 | 24
23 | B23 | 31
24 | B24 | 29
25 | B25 | 19
26 | B26 | 27
27 | B27 | 23
28 | B28 | 33
29 | B29 | 30
30 | B30 | 19
31 | B31 | 17
32 | B32 | 23
33 | B33 | 38
34 | B34 | 16
35 | B35 | 29
36 | B36 | 37
